Consider two molecules from CN107383198A (ZONHON BIOPHARMA INST INC, dated 2017).

Assay [1] concerns the target T1, 提取于人血浆的胱抑素C (native human cystatin C, HyTest) (human, UniProt P01034 27-146).
T1 construct: mature; also called CysC; 天然CysC蛋白
T1 sequence (looked up): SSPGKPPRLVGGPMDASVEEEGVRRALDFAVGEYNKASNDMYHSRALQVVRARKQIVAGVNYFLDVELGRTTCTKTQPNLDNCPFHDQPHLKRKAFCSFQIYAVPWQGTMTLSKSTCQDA
Description: indirect ELISA, CysC (HyTest) coated at 1 μg/mL, hybridoma supernatant, HRP goat anti-mouse IgG.

The target in assay [2] is T1, 提取于人血浆的胱抑素C (native human cystatin C, …). Description: Western blot of native CysC (HyTest) with HRP-labelled scFv.

B1: 抗体M12 (antibody secreted by hybridoma cell line M12) (antibody, V domains shown)
VH: QVQLQQPGSELVRPGTSVKLSCRASGYTFTSYWMHWVKQRHGQGLEWLGNVDPGSGTTNYEENFKTKGTLTVDTSSSTVYMHLSSLTSEDSAVYYCTAGFDYWGQGTTLTVSA
VL: DIQMNQSPSSLSASLGDTITITCHASQNINVWLGWFQQKPENIPKLLIYKASTLHTGVPSRFSGSGSGTVFTLTISSPQPEDIATYYCQQGQTYPLTFGAGTKLEIK
notes: Mouse monoclonal antibody tested as hybridoma culture supernatant and detected with HRP goat anti-mouse IgG
In the case of B1, the binding result in assay [1] is “binds”.

B2: 单链抗体C12 (anti-human cystatin C scFv C12) (scFv)
scFv: QVQLQQPGSELVRPGTSVKLSCRASGYTFTSYWMHWVKQRHGQGLEWLGNVDPGSGTTNYEENFKTKGTLTVDTSSSTVYMHLSSLTSEDSAVYYCTAGFDYWGQGTTLTVSAGGGGSGGGGSGGGGSDIQMNQSPSSLSASLGDTITITCHASQNINVWLGWFQQKPENIPKLLIYKASTLHTGVPSRFSGSGSGTVFTLTISSPQPEDIATYYCQQGQTYPLTFGAGTKLEIK
notes: Used HRP-labelled in the Western blot and colloidal-gold-labelled in the test card; also called C12-scFv-(HIS)6; C12-HRP
As to B2, the binding result in assay [2] is “binds”.
